Biological target: the molecule itself
Experiment: native MS

B1: bacteriophage MS2 coat protein dimer (natural protein)
chain: ASNFTQFVLVDNGGTGDVTVAPSNFANGVAEWISSNSRSQAYKVTCSVRQSSAQNRKYTIKVEVPKVATQTVGGVELPVAAWRSYLNMELTIPIFATNSDCELIVKAMQGLLKDGNPIPSAIAANSGIY
- stoichiometry N: 10 CP2 dimers
